# Publication PMC8557155 (Annals of Nuclear Medicine, 2021)
# Like-named read-outs stand apart in the source and are kept apart here.
# How the values were obtained:
# clinical = assay: clinical; set-up: species or system human (Japanese patients); conditions: in vivo; for dose excreted: human, iv, 7.4 GBq, total radioactivity
# [1] = set-up: species or system human (Japanese patients); conditions: in vivo
# Experimental: Image processing and radioactivity quantification were performed by a nuclear medicine expert at site, and dosimetry calculation was performed by the sponsor of the study. All images were taken using the Symbia T-16 SPECT/CT scanner (Siemens). The dual-headed gamma camera was equipped with a 0.952-cm (0.375-in)-thick NaI crystal and a medium-energy low penetration collimator. An energy window of ± 10% was applied around the one dominant gamma ray energies of ^177Lu (208 keV). The matrix size was 256 × 1024. […] Radioactivity quantification was performed on patient images, and the geometric mean was calculated. Regions of interests (ROIs) were drawn around the kidneys, liver, spleen, other organs, and whole body on the planar images. Tumor tissue within the organs was excluded. The absorbed dose to each organ was estimated using the OLINDA/EXM 1.0 (Vanderbilt University), a software based on the Medical Internal Radiation Dose algorithm, which is widely used for established beta and gamma emitting radionuclides. The biological effective dose (BED) for the kidneys were estimated using the SAS software, version 9.4 (SAS Institute).
# [2] = set-up: species or system human (Japanese patients); conditions: in vivo; remark: listed apart in the source
# [3] = in vivo; cited from earlier work
# [4] = in vivo; cited from earlier work; remark: listed apart in the source
# Source text: This study is the first clinical trial on ^177Lu-DOTATATE for unresectable NETs in Japan. At 29.6 GBq, the absorbed dose to the kidney and red bone marrow was 16.8 Gy and 0.722 Gy, respectively. These values were lower than the reported threshold dose for the kidney (23 Gy) and the red bone marrow (2 Gy). The calculated absorbed doses to the kidney, spleen, red bone marrow, and liver were 0.568, 0.559, 0.0244 and 0.247 mGy/MBq, respectively, in this study. We compared the calculated absorbed dose to each organ with previously published studies in Caucasian populations. In the prev ... || In this study, severe lymphopenia occurred in two (33.3%) cases, and other hematological toxicities were grade 1 or 2 leukocytopenia and thrombocytopenia. This finding was very similar to that reported in the Erasmus study. […] In the present study, lymphocyte, erythrocyte, and leukocyte counts gradua ...
# [5] = in vivo; cited from earlier work; remark: listed apart in the source
# Source text: This study is the first clinical trial on ^177Lu-DOTATATE for unresectable NETs in Japan. At 29.6 GBq, the absorbed dose to the kidney and red bone marrow was 16.8 Gy and 0.722 Gy, respectively. These values were lower than the reported threshold dose for the kidney (23 Gy) and the red bone marrow (2 Gy). The calculated absorbed doses to the kidney, spleen, red bone marrow, and liver were 0.568, 0.559, 0.0244 and 0.247 mGy/MBq, respectively, in this study. We compared the calculated absorbed dose to each organ with previously published studies in Caucasian populations. […] In this study, the primary lesions were located in the pancreas, stomach, and rectum. Therefore, many patients underwent pancreatectomy and colectomy before enrollment in the study; diarrhea is likely to occur more in such patients compared to primary midgut cases because pancreatic enzyme deficiency o ...
smiles,measurement,setting,value
"C[C@@H](O)[C@H](NC(=O)[C@@H]1CSSC[C@H](NC(=O)[C@@H](Cc2ccccc2)NC(=O)CN2CCN(CC(=O)O)CCN(CC(=O)O)CCN(CC(=O)O)CC2)C(=O)N[C@@H](Cc2ccc(O)cc2)C(=O)N[C@H](Cc2c[nH]c3ccccc23)C(=O)N[C@@H](CCCCN)C(=O)N[C@@H]([C@@H](C)O)C(=O)N1)C(=O)O [177Lu-DOTATATE, ^177Lu-DOTA^0-Tyr^3-octreotate, metal not drawn]",dose excreted,clinical; Biological cumulative urine excretion of radioactivity at 24 h after administration,71.2%
same,dose excreted,clinical; Biological cumulative urine excretion of radioactivity in the first 4 h,53.7%
same,dose excreted,clinical; Cumulative urinary excretion of radioactivity within the initial 6 h,60.1%
same,"Effective urinary radioactivity concentration, 0–1 h",clinical,4.7 ± 1.9 GBq/L
same,"Effective urinary radioactivity concentration, 4–6 h",clinical,1.3 ± 1.1 GBq/L
same,"Effective urinary radioactivity concentration, 6–24 h",clinical,0.3 ± 0.1 GBq/L
same,"Effective urinary radioactivity concentration, 24–48 h",clinical,0.07 ± 0.03 GBq/L
same,"BED for the kidneys for 7.4 GBq, max",[1],5.38 Gy/7.4 GBq
same,"BED for the kidneys for 7.4 GBq, mean",[1],4.25 Gy/7.4 GBq
same,"BED for the kidneys for 7.4 GBq, min",[1],3.04 Gy/7.4 GBq
same,"BED for the kidneys for 29.6 GBq, max",[1],21.5 Gy/29.6 GBq
same,"BED for the kidneys for 29.6 GBq, mean",[1],17.0 Gy/29.6 GBq
same,"BED for the kidneys for 29.6 GBq, median",[1],17.2 Gy/29.6 GBq
same,"BED for the kidneys for 29.6 GBq, min",[1],12.2 Gy/29.6 GBq
same,"BED for the kidneys, max",[1],0.727 mGy/MBq
same,"BED for the kidneys, mean",[1],0.574 mGy/MBq
same,"BED for the kidneys, median",[1],0.580 mGy/MBq
same,"BED for the kidneys, min",[1],0.411 mGy/MBq
same,Effective radioactivity in the kidney at 1 h,[1],2.39 ± 0.535%
same,Effective radioactivity in the liver at 1 h,[1],4.97 ± 2.01%
same,Effective radioactivity in the spleen at 1 h,[1],0.812 ± 0.405%
same,Fraction of the effective radioactivity retained in the whole body at 1 h,[1],71.4 ± 4.9%
same,Fraction of the effective radioactivity retained in the whole body at 4 h,[1],39.5 ± 5.7%
same,Fraction of the effective radioactivity retained in the whole body at 24 h,[1],16.0 ± 3.5%
same,Fraction of the effective radioactivity retained in the whole body at Day 6,[1],5.8 ± 1.3%
same,Fraction of the injected activity retained in the blood at 20 min after the injection,[2],0.00351 % dose/g
same,Fraction of the injected activity retained in the blood at 4 h after the injection,[2],0.00077 % dose/g
same,"Effective half-time, distribution phase",[2]; iv,2.37 ± 0.30 h
same,"Effective half-time, excretion phase",[2]; iv,42.7 ± 2.44 h
same,Absorbed dose to the spleen,[3],0.645 mGy/MBq
same,Severe lymphopenia at the follow-up visit after 3 month final treatment,[4],25.8%
same,Severe lymphopenia at the follow-up visit after 30 months final treatment,[4],5.6%
same,"Severe lymphopenia, frequency",[4],50.0%
same,"Severe renal toxicities, frequency",[4],1%
same,"Diarrhea, frequency",[5],28.8%
same,"Severe renal toxicities, frequency",[5],0.9%
